We go through two molecules from patent US7026456.

In this experiment the target is natural human IL-12 (p75 heterodimer), purified from stimulated human blood cultures (human) (UniProt P29459). The experiment can be described thus: cell-based or functional assay.
Chain of UniProt P29459 (P29459 23-219, chain 1 of 2): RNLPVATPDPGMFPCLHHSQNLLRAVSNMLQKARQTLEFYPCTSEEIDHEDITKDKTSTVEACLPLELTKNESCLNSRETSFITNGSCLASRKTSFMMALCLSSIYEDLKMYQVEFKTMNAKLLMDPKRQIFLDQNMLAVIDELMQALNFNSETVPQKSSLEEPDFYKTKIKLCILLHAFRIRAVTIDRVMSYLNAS
Chain of UniProt P29459 (P29460 23-328, chain 2 of 2, further chain): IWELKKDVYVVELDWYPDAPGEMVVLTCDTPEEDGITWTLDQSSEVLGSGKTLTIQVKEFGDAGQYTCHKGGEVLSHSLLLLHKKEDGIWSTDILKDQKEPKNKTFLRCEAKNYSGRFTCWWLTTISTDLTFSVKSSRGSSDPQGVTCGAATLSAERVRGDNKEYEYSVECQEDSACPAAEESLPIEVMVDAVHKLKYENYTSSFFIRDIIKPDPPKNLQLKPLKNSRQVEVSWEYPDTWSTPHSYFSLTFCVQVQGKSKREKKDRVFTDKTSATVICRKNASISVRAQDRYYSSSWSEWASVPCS

B1: monoclonal antibody 20E11, produced by hybridoma HIL-12F3-20E11 (ATCC HB-12448) (antibody, part only; not given: light chain and constant regions, V domains shown, part only)
VH: EESGPSLVKPSQTLSLTCSVTGDSITSGYWNWIRKFPDNTLEYMGYISYSGSTYYNPSLRSRISITRDTSKNQYSMQLNSVTTEDTATYYCARSSDAMDYWG
On to B1, for which the IC50 of 0.25 ng/ml IL-12-stimulated proliferation of PHA-activated human lymphoblasts was 0.01 µg/mL, the IC50 of 0.25 ng/ml human IL-12-stimulated IFN-γ production by PHA-activated human lymphoblasts was 0.02 µg/mL, the inhibition of IL-12-stimulated IFN-γ production at 0.5 µg/ml antibody was above 90% and the inhibition of human IL-12 stimulated PHA activated lymphoblast proliferation is above 90%.

B2: monoclonal antibody 16G2, produced by hybridoma HIL-12F3-16G2 (ATCC HB-12449) (antibody, part only; not given: light chain and constant regions, V domains shown, part only)
VH: LEESGPSLVKPSQTLSLTCSVTGDSITSGYWNWIRKFPGNKFEYMGFISYSGSTYNNPSLKNRVSITRDTSNNQYYLQLSSVTTEDSATYYCARSSDALDYWGAGTT
B2 yielded an IC50 of 0.25 ng/ml IL-12-stimulated proliferation of PHA-activated human lymphoblasts of 0.01 µg/mL, an IC50 of 0.25 ng/ml human IL-12-stimulated IFN-γ production by PHA-activated human lymphoblasts of 0.01 µg/mL, an inhibition of IL-12-stimulated IFN-γ production at 0.5 µg/ml antibody above 90% and an inhibition of human IL-12 stimulated PHA activated lymphoblast proliferation above 90%.
